Assay results published in paper PMC4772808, “Insights from the reconstitution of the divergent outer kinetochore of Drosophila melanogaster” (Open Biology, 2016).
One block for each binder: values may come before it.

Legend:
Assay in all cases: AUC; sedimentation velocity, 42 000 rpm, 20°C, 20 mM Tris pH 8, 0.15 M NaCl, 1 mM TCEP, absorbance at 280 nm, c(S) analysis with SEDFIT
Conditions in all cases: both partners purified
[1] = biological target: T1, DmMis12a complex (Mis12:Nnf1a:Kmn1) (Drosophila melanogaster, UniProt Q9VS01 1-181; Q7JZC9 1-194; Q9VYX4 1-183)
T1 construct: Mis12 subunit of the Drosophila melanogaster Mis12 complex; Nnf1a (Nnf1R-1), Drosophila melanogaster; Kmn1, the Nsl1 orthologue of Drosophila melanogaster; source: E. coli BL21(DE3) Rosetta, co-expressed (pST44), purified (His-Trap, ResourceQ, Superdex 200); copies: 1 + 1 + 1
T1 sequence (looked up) 1: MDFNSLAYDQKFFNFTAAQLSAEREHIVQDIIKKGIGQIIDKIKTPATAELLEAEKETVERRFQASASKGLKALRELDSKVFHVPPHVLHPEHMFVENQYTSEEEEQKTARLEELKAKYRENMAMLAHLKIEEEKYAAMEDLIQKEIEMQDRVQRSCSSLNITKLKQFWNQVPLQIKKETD
T1 sequence (looked up) 2: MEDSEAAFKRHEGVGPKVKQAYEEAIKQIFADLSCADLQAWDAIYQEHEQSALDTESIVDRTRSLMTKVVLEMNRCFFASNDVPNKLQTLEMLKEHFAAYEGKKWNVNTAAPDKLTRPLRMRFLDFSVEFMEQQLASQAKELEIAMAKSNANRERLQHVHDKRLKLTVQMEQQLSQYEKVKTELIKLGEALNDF
T1 sequence (looked up) 3: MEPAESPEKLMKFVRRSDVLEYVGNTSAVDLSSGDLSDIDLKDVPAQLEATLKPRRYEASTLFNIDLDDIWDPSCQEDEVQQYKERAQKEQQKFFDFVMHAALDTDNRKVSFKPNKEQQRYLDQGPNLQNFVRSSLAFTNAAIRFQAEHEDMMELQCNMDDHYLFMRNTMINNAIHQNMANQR

[2] = biological target: T2, Mis12a:Spc105R^1707–1960 complex (Drosophila melanogaster, UniProt Q9VS01 1-181; Q7JZC9 1-194; Q9VYX4 1-183; M9PIC9 1707-1960)
T2 construct: Mis12 subunit of the Drosophila melanogaster Mis12 complex; Nnf1a (Nnf1R-1), Drosophila melanogaster; Kmn1, the Nsl1 orthologue of Drosophila melanogaster; source: E. coli BL21(DE3) Rosetta, co-expressed (pST44), purified (His-Trap, ResourceQ, Superdex 200); copies: 1 + 1 + 1 + 1
T2 sequence (looked up) 1: T1 sequence (looked up) 1
T2 sequence (looked up) 2: T1 sequence (looked up) 2
T2 sequence (looked up) 3: T1 sequence (looked up) 3
T2 sequence (looked up) 4: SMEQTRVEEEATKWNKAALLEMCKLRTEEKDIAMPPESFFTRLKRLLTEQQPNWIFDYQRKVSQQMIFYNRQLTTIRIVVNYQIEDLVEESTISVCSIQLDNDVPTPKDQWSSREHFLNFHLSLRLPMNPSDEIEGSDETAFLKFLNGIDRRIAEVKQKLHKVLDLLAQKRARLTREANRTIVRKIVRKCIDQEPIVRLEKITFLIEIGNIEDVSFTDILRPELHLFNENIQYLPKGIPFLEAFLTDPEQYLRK

[3] = biological target: T3, DmMis12b complex (Mis12:Nnf1b:Kmn1) (Drosophila melanogaster, UniProt Q9VS01 1-181; Q8IPW3 1-204; Q9VYX4 1-183)
T3 construct: Mis12 subunit of the Drosophila melanogaster Mis12 complex; Nnf1b (Nnf1R-2), Drosophila melanogaster; Kmn1, the Nsl1 orthologue of Drosophila melanogaster; source: E. coli BL21(DE3) Rosetta, co-expressed (pST44), purified (His-Trap, ResourceQ, Superdex 200); copies: 1 + 1 + 1
T3 sequence (looked up) 1: T1 sequence (looked up) 1
T3 sequence (looked up) 2: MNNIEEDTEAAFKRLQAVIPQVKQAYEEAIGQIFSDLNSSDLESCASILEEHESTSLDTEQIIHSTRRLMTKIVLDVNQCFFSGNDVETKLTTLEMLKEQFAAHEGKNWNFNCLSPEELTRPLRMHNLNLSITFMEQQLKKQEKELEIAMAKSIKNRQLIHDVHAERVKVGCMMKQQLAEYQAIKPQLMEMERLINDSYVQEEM
T3 sequence (looked up) 3: T1 sequence (looked up) 3

stoichiometry N [1]: 1 | stoichiometry N [2]: 1
B1: DmCENP-C^1–105 (domain or fragment, Drosophila melanogaster, UniProt Q9VHP9 1-105, looked up)
chain: MSKPQNNDTLELDDILSQPVKDKERFAAFMMRKLAENKPAQNDNLFGNFKLDFDLDFEVPLIKKSQAKPKSKLPEVQPLGELVSKNSAATEKVNEPPVDQAPNEN
notes: source: E. coli BL21(DE3) Rosetta, purified (His-Trap, ResourceQ, Superdex 200)

stoichiometry N [1]: 1 | stoichiometry N [3]: 1
B2: Spc105R^1707–1960 (domain or fragment, Drosophila melanogaster, UniProt M9PIC9 1707-1960, looked up)
chain: T2 sequence (looked up) 4
notes: Soluble only when co-expressed with the Mis12a or Mis12b complex
